Results taken from paper PMC8212047 (Frontiers in Immunology, 2021).

Each binder was assayed against SARS-CoV-2 RBD (Wuhan-1) RBD-FC fusion protein (SARS-CoV-2, UniProt P0DTC2) (assay: SPR). Conditions: both partners purified.

Binder	binding result
RGN10987 (antibody, V domains shown) VH: QVQLVESGGGVVQPGRSLRLSCAASGFTFSNYAMYWVRQAPGKGLEWVAVISYDGSNKYYADSVKGRFTISRDNSKNTLYLQMNSLRTEDTAVYYCASGSDYGDYLLVYWGQGTLVTVSS VL: QSALTQPASVSGSPGQSITISCTGTSSDVGGYNYVSWYQQHPGKAPKLMIYDVSKRPSGVSNRFSGSKSGNTASLTISGLQSEDEADYYCNSLTSISTWVFGGGTKLTVL	binds
CB6 (antibody, V domains shown, source: produced and purified as previously described (29)) VH: EVQLVESGGGLVQPGGSLRLSCAASGFTVSSNYMSWVRQAPGKGLEWVSVIYSGGSTFYADSVKGRFTISRDNSMNTLFLQMNSLRAEDTAVYYCARVLPMYGDYLDYWGQGTLVTVSS VL: not shown	binds
RGN10933 (antibody, V domains shown) VH: QVQLVESGGGLVKPGGSLRLSCAASGFTFSDYYMSWIRQAPGKGLEWVSYITYSGSTIYYADSVKGRFTISRDNAKSSLYLQMNSLRAEDTAVYYCARDRGTTMVPFDYWGQGTLVTVSS VL: DIQMTQSPSSLSASVGDRVTITCQASQDITNYLNWYQQKPGKAPKLLIYAASNLETGVPSRFSGSGSGTDFTFTISGLQPEDIATYYCQQYDNLPLTFGGGTKVEIK	binds
